Measured values published in publication PMC7393355, “A FRET-based screening method to detect potential inhibitors of the binding of CNNM3 to PRL2” (Scientific Reports, 2020).
Numbering of substitutions follows the chain as printed. Names and notes keep the numbering of the source. Each block holds one molecule with its values, some of them ahead of it.

System: binding of CNNM3-YPet and CyPet-PRL2 (CNNM3-PRL2 complex)
Assay: FRET-based inhibition test of the binding of CNNM3-YPet and CyPet-PRL2
Set-up: species or system human
Details: CNNM3-YPet 200 nM, CyPet-PRL2 200 nM, n = 6; for FRET intensity abolished / inhibition of complex formation: pre-incubated 20 min R.T. with binding partner, TBS pH 8.0, mean
Protocol: FRET measurements were conducted in TBS (50 mM Tris–HCl (pH 8.0) and 150 mM NaCl). Proteins were mixed in 96-well plates and incubated at R.T. for 1 h. Fluorescence intensities were measured using an excitation wavelength of 435 nm and an emission wavelength of 530 nm with a Cytation 3 (BioTek).
The emission spectra were measured with each component at 200 nM using the Cytation 3 (BioTek) with 435 nm excitation (Supplementary Fig. 2), and the original data are shown in Supplementary Table 1. The FRET intensity was calculated by Eq. (1).1 IFRET=IA-raw-Dleakage-Adirect where IA-raw is the intensity measured at 530 nm with 435 nm excitation, Dleakage is the leakage of the donor emission into the acceptor wavelength (530 nm) upon donor excitation, and Adirect is the direct excitation of the acceptor with the donor wavelength (435 nm).
The inhibition of complex formation was assayed by pre-incubating the binding partner (200 nM) with inhibitory factors (1, 10 μM) for 20 min at R.T., followed by addition of the other protein (200 nM) (Figs. 3B, 4C). The effects of divalent cations (10 mM) and nucleotides (3 mM) were also assayed similarly (Fig. 5).
The peptides for the peptide inhibition test were synthesized by Shanghai Dechi Biosciences (Fig. 6C,D). The peptide sequences were as follows: peptide 1, IVQKVNNEGEGDPFYEVLG; peptide 2, […] (an S–S bond was formed between the cysteine residues, as verified by HPLC and mass spectrometry). The peptides were dissolved in TBS buffer at 10 mM before use.
FRET data were evaluated by subtracting backgrounds (fluorescence intensities of CyPet-PRL2, CNNM3-YPet and a blank well). All data analysis was performed using GraphPad Prism 6 (GraphPad Software) with the methods described in each legend.

FRET intensity abolished / inhibition of complex formation (inhibitory protein 1 μM): 77.7%
FRET intensity abolished / inhibition of complex formation (inhibitory protein 10 μM): 89.2%
B1: non-YPet-tagged CNNM3: purified non-fluorescence-tagged CBS domain of human CNNM3 (protein)
chain: YSDLSKGVLRCRTVEDVLTPLEDCFMLDASTVLDFGVLASIMQSGHTRIPVYEEERSNIVDMLYLKDLAFVDPEDCTPLSTITRFYNHPLHFVFNDTKLDAVLEEFKRGKSHLAIVQKVNNEGEGDPFYEVLGLVTLEDVIEEIIRSEILDE
modifications: left off: His tag (from the vector pET28a and the Ni-NTA purification), end not stated, state not stated

FRET intensity abolished / inhibition of complex formation (inhibitory protein 10 μM): 12.9%
effect of added protein on FRET intensity (in words) (inhibitory protein 1 and 10 μM): little effect on the FRET intensity
B2: CNNM3 CBS domain D426A mutant: CNNM3 CBS domain with D426A mutation at the PRL2-binding site (protein)
chain: B1 chain with D126A
modifications: left off: His tag (from the vector pET28a and the Ni-NTA purification), end not stated, state not stated

FRET intensity abolished / inhibition of complex formation (inhibitory protein 1 μM): 61.6%
FRET intensity abolished / inhibition of complex formation (inhibitory protein 10 μM): 90.0%
B3: PRL1: purified non-fluorescence protein-tagged human PRL1 (protein)
chain: MARMNRPAPVEVTYKNMRFLITHNPTNATLNKFIEELKKYGVTTIVRVCEATYDTTLVEKEGIHVLDWPFDDGAPPSNQIVDDWLSLVKIKFREEPGCCIAVHCVAGLGRAPVLVALALIEGGMKYEDAVQFIRQKRRGAFNSKQLLYLEKYRPKMRLRFKDSNGHRNNCCIQ

FRET intensity abolished / inhibition of complex formation (inhibitory protein 1 μM): 85.5%
FRET intensity abolished / inhibition of complex formation (inhibitory protein 10 μM): 89.7%
B4: PRL2: purified non-fluorescence protein-tagged human PRL2 (residues 1–167) (protein)
chain: MNRPAPVEISYENMRFLITHNPTNATLNKFTEELKKYGVTTLVRVCDATYDKAPVEKEGIHVLDWPFDDGAPPPNQIVDDWLNLLKTKFREEPGCCVAVHCVAGLGRAPVLVALALIECGMKYEDAVQFIRQKRRGAFNSKQLLYLEKYRPKMRLRFRDTNGHCCVQ
modifications: left off: His tag (from the vector pET28a and the Ni-NTA purification), end not stated, state not stated
